Measurements reported in the DeepSol protein solubility set.

Assay: soluble on expression in E. coli; label from the status in PepcDB or PDB records

Sequence	soluble on expression in E. coli
MSLFTGYGNCYRLDALELAAEHGHTMQHWTFKTIEHFRSILANPEFPCLFGRKAVNGETCHILFARAEQLADDIAQGLANYVRTVAPIAPKQRIGSPLVVFLETAAGSSLAEQQALAWKVLRGVHARDPHPWPQGIPTDPDDTGWSFCYAGMPLFINMNFPGHQQMKSRNLGQHITFVINPRENFDEVANANTESGKRIRERIRERVHHYNDGVVPDTLGFFGDTDNYEWKQYQLQEAGSLNPSRCPFHAHAAHQPTPDILIENEGHHHHHH	not soluble
KNVWIFAEQREGKIAPVVIELLGEGRKLAKEVDAELCAILLGKDVDGLAKELITFGADKVYVADDALLEKYTTDAYTKVIKDAIDEIKPEIMLFGATHIGRDLAPRIASRVGTGLTADCTKLEIDPEDKKIKQTRPAFGGNIMATIICPNHRPQMSTVRPGVMDKAEKDETRTGEVIALDYKITQDDIRTTVLETV	not soluble
MGSDKIHHHHHHMTQLSNKTKDSCNWDSIVIGSGLGGLVTASQLASKGAKVLVLEQYKIPGGSGGSFKRKGFTFDVGASMIFGFGNKGYTNLLTRALKDVGQKCETIPDPTQLAYHLPNQLEISVDRDYQKFITKLINLFPHEEKGIKHFYETCWDVFNCLDSMPLLSIEDPAYLMKVFFKSPLSCLGLARWLPVNAGDVAMRYIKDPDLLRFIDIECFCWSVMPANLTPMINAGMVFSDRHYGGINYPKGGVGVIAEKLVKGIKNLGGEIRYKSRVKKIIFEKGNAIGVSLENDEEIFSKTVVSNATRWDTFGGQGIKSPLVATENKPTSEKKWENRYIPSPSFLSLHLGVNVDSIPANTHCHHLLLDKWEEMDKEQGVTFVSIPTLLDPTLAPSGSHIVHAFTPSSIDNWDGLSNKEYLAKKKEDGDKLISKLERLFPNLSQNILHKEIGSPRTHKRFLARNKGSYGPIPSMRLPGLLPMPFNTTKINGLYCVGDSCFPGQGLNAVAFSGYACAHKIGTKLGMNKWELPE	not soluble
MSLTIGFIFDLDGVITDTAKFHYQAWKALADSLGIPIDETFNETLKGISRMDSLDRILVHGHRENAFTPAEKEALAQQKNDHYVQLLEQLTTEDVLPGVVPLLQQAQARHIPCAVASASKNAPLILEKLGVRAYFATIVDPDSLSKGKPDPEIFLAAADSIGVLPQNAIGFEDAQSGIDGLKAAGIYAVGLSASQPLIGADMQVSEMTELSVDALLNREGHHHHHH	soluble
MVAPGSVTSRLGSVFPFLLVLVDLQYEGAECGVNADVEKHLELGKKLLAAGQLADALSQFHAAVDGDPDNYIAYYRRATVFLAMGKSKAALPDLTKVIQLKMDFTAARLQRGHLLLKQGKLDEAEDDFKKVLKSNPSENEEKEAQSQLIKSDEMQRLRSQALNAFGSGDYTAAIAFLDKILEVCVWDAELRELRAECFIKEGEPRKAISDLKAASKLKNDNTEAFYKISTLYYQLGDHELSLSEVRECLKLDQDHKRCFAHYKQVKKLNKLIESAEELIRDGRYTDATSKYESVMKTEPSIAEYTVRSKERICHCFSKDEKPVEAIRVCSEVLQMEPDNVNALKDRAEAYLIEEMYDEAIQDYETAQEHNENDQQIREGLEKAQRLLKQSQKRDYYKILGVKRNAKKQEIIKAYRKLALQWHPDNFQNEEEKKKAEKKFIDIAAAKEVLSDPEMRKKFDDGEDPLDAESQQGGGGNPFHRSWNSWQGFNPFSSGGPFRFKFHFN	soluble
MPRYYEDKPEGGACAGVKEDLGACLLQSACVLQEGKSPRQCLKEGNCRALQYSFFECKRSMLDARSRFRGRKGY	not soluble
GMEFLMKISHLDHLVLTVADIPTTTKFYEKVLGMKAVSFGSGRIALEFGHQKINLHQLGHEFEPKAQNVRTGSADLCFITDIDLSDAMEYVENQGVVIMEGPVKRTGAQGAITSFYFRDPDGNLIEVSTYSNT	soluble
MGSDKIHHHHHHMLDIKYYVLIDAIATHGTVHDAAAAIGITQPAATHRIREMERRLGVALFHREGRRLTLSASGERLLDTAHAVLPQLRNAELEAWQLARRAEPALRLGIGPYDTFSRAIPHLYDQHERDIDLVRLPMADMTTALLANRVDMICMIEVPSQRGIAHQLLFEEPLVAVLPPDHPDAQSDTIPAEVFDRGRHFTYSITPESGHEFEHFFQPAGVYPSHMVQIESVALILELVAAGKGVSILSRWAARDAHQAGHVVMRPLAGDIPRIPWYLAYTQTPHIAAVAEPLADTLRHLYRADE	not soluble
MGSDKIHHHHHHMPRDLPPLNALRAFTAAAKRLSFTQAAEDLGVTQAAVSHQIRGLEDWLGVALFRRRNKQVVMTEAGQVYALAIGQALDEIAEATAALVRNDPRAGMLTISTMPSFAIKWLVQRLGGFINANPDIEVRLHTTRELVNFATEGIDVAIRMTREVGDDLHADLLLEEELFPVCSPALMRGIRPLRQPSDLSQHLLLQDVGISWVSWLDPAGALDVRPARGPGYLDSALAIQACIESQGVMLGRTVMVEDDLKAGRLVEPFTLRVPSPMKYWLVCPPGHLARPGVRAFREWILAEASKWTKARSSAHGVED	not soluble
MSLQKEEILKLPISYKNIRLIRLNLPQKEQFVSGIGVRNSRKALIIEWEDDNGTKGYGECSCRPDPYYSDEFIEGAIALVNQFIVPFLKQNQTFGDLLKLLDKIRGWNFTKAAVEMAALQVIEQNTGKSPFQLLQNKPLAHVPVGISLGLYTDVDRMKKVVKNALETGYKRLKFKISPKVRVDFFEEINPMLFEADTFVSFDANGSFGENDLDIFHYFANTYQSMIEQPFAPTRFDILSKVKKEHPEIYICYDEEIKSIGDLIKLHHLGMLDEVNLKVGRVGGVMKSIEIIQYCAEHNIPCWIGGMFETGIGRTLNLRMASYLPNARAHDLSPSDRYFLEDIVQPNVQMNNGLVNMESLKNCTIQPNLIDKYTIDQKTLTRICEGHHHHHH	soluble
MGKEYHVAVVGATGAVGTRMIELLAETSLPIASVRLLASKRSAGQEIQFKGQPLIVEELVPESFEGIDLALFSAGGSISEKFAPEAVKRGAVVVDNTSHFRMAKDVPLVVPEVNPEALKNHQGIIANPNCSTIQMMVALEPIRQAFGLERIIVSTYQAVSGAGIRAINELKEQAEDFLEGKPVSEWSAEILPAGSDEKHYPIAFNALPQIDVFSEAGYTYEEWKMMNETKKIMGDNKLKVVATCVRIPVISGHSESVYIEVKQADASVSAIQELMAQAPGVILQDEPSEQLYPQALNSVNQKETFVGRIRQDVDVKNGFHLWIVSDNLLKGAAWNSVQIAETLHEMNLLRVPEND	not soluble
MGSDKIHHHHHHVTSQAPVEVMTDIMTKFTSYIGKRLPTDIKEKLADLREAETNPMANVLFDSMAENQEAADKLNRPSCQDTGVIQYFITAGAKFPLLGELEEILRNATLGATKLGPLRHNAVEAFDEKNTGTNTGSRIPWLDWEIVPNDDGVIIDVYMAGGGCTLPGASTVLMPGQGYEGVVDFVFDVVTSRGINACPPLLIGVGVSTSAETAARLSKKAILRPVGSHHDNANAAKMETLLEDGLNELGIGPQGLTGNSSVMGVNIESSARHPSTIGVAVSTGCWAHRRGRIRFNADLSYEIVSHEGVVL	not soluble
DRILAQERLCRSEERYRLLFEEMMSGCALHELICDRDGNPADYRFLAVNGAFERMTGLRAADIVGKTVLEVMPGTERHWIERYGDVALSGRSAEFEEYAGAIGRYYSVRAYCPERGKFAAVFNDIT	not soluble
MGSDKIHHHHHHMIFQLKGKFQHYPWGGRYFIPHFLKLTEVVDQPYAEYWLGAHPAASATIKFGEQWLPLADVIKQAPELLGERSRQQFGDNLPYLLKILDIKQPLSIQLHPNKAQAEYGFNQENRQGIPLEDVRRIYKDRNHKPEMMIALSDFWLLHGFKSITAIQACLAKYPSTSALAKSLVEKSLAVVYAEIMHADQTQLASWLRPIIEQRRADYLADKLKLSDPDYWLLYMTDDLAADAPLDAGLMCFYLFNIVHLKKGEGIYQAANLPHAYLRGQSIELMANSDNVIRGGLTTKWVDIPALLQAVDYRPVRPQIIAAYRDDKTVDQNFYLYPTPQAKDFALQRLTIRQLVENRFVTDSASMLLVMKGSLYIDLGNTSFHLNQGDAVFISADSHVELIGENDGYAIIASLP	not soluble
MKTHYRTIVLSDIHLGTSSSKAKEVSNFLKNHTCDTLLLNGDIIDGWQLQKYGKWKKSHTRFFRRVIKMTEQNKTKVYYLRGNHDDFLDTILPLSFGNIHIDREYIHQGATGKMYYVVHGDVFDTVTSQLKWIAKLGDVGYTFLLWLNKHYNNYRVKRGLPYYSLSQAVKQKVKTAVSYISDFEMQLADLARSRKCDGVICGHIHQPAIKEYNGIEYLNSGDWVETLSALVETIHGEWKLIYYNQAFDEDRDSTEDADDPLFVFENMARFSKDVTIYKPRYSAFNGMNPADNLATNNQ	not soluble
